What was measured:
MS2 coat protein [1] = experiment: apparent KD of MS2 coat protein; designed switch direction (-1 OFF switch, 1 ON switch): 1; higher = weaker reporter binding
Procedure, shortened: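 SNAP-549-labelled MS2 coat protein was titrated, doubling from 0.7 or 1.5 nM to 3 µM, over designed RNA switches transcribed on Illumina chips by stalled E. coli RNA polymerase. Runs were done without input, with 200 uM small-molecule ligand, or with an oligonucleotide input. Apparent KD is the per-design median over clusters of curve-fitted normalised fluorescence.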

MS2 coat protein [2] = experiment: apparent KD of MS2 coat protein; higher = weaker reporter binding; settings: Eterna round: R107
Procedure, shortened: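 SNAP-549-labelled MS2 coat protein was titrated onto designed RNA switches that had been transcribed on-chip from Illumina sequencing clusters. Amounts doubled from 0.7 or 1.5 nM to 3 µM in 100 mM Tris-HCl pH 7.5, 80 mM KCl, 4 mM MgCl2, with constant ligand or without. Apparent KD is the median per design of normalised cluster binding-curve fits.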

[3] = input ligand: microRNA oligo, concentration not stated
[4] = Eterna round: R95, input ligand: FMN 200 uM
[5] = Eterna round: R95, input ligand: microRNA oligo, concentration not stated
[6] = Eterna round: R95, input ligand: none
[7] = input ligand: theophylline 20 uM
[8] = input ligand: tryptophan 2.4 mM
[9] = input ligand: theophylline 2 mM

Row | Sequence | apparent KD of MS2 coat protein (MS2 coat protein [1]; [3]) [µM] | apparent KD of MS2 coat protein (MS2 coat protein [2]; input ligand: arginine 13.2 mM) [µM] | apparent KD of MS2 coat protein (MS2 coat protein [2]; [7]) [µM] | apparent KD of MS2 coat protein (MS2 coat protein [2]; [8]) [µM] | apparent KD of MS2 coat protein (MS2 coat protein [2]; input ligand: none) [µM] | apparent KD of MS2 coat protein (MS2 coat protein [2]; [9]) [µM] | other results
1 | AAAAAACAUGAGGAUCACCCAUGUAAAAAAAUGGGAGGAUAUACAAAAACGAAAGUCAAAGUAGAAGGCCUGAAAA [same state 5] (Eterna round: R96, puzzle: Same State 1) | 0.0786 | – | – | – | – | – | –
2 | AAAAUGCGGGAAGGAUAUGGGAAAGGAAGUGUACCAGAAGGUCUCGCGGCCAAGGACAUGAGGAUCACCCAUGUGAACGCCCGA [PowerStrip SSNG 1.9] (Eterna round: R96, puzzle: Same State NG 1) | 0.041 | – | – | – | – | – | apparent KD of MS2 coat protein (MS2 coat protein [1]; input ligand: FMN 200 uM): 0.0981 µM; apparent KD of MS2 coat protein (MS2 coat protein [1]; input ligand: none): 0.0591 µM
3 | AAACCACAUGAGGAUCACCCAUGUAAAAAUAUGGGAGGAUAUCGGAAUAAAAUAAAGAAACGAGAAGGCCUAAAAA [59%, Flamingo, 5] (Eterna round: R96, puzzle: Same State 1) | 0.212 | – | – | – | – | – | apparent KD of MS2 coat protein (MS2 coat protein [1]; input ligand: FMN 200 uM): 0.0266 µM; apparent KD of MS2 coat protein (MS2 coat protein [1]; input ligand: none): 0.256 µM
4 | AAAGAAAAACUAGAGGAUAUCCGAGUGGUAACAUGAGGAUCACCCAUGUGAUGAAAGGAACAUGAGGAGAAGGCUAGAAGAAAAA [JL Nando mod 8] (Eterna round: R96, puzzle: Same State 2) | 0.0476 | – | – | – | – | – | apparent KD of MS2 coat protein (MS2 coat protein [1]; input ligand: FMN 200 uM): 0.0206 µM; apparent KD of MS2 coat protein (MS2 coat protein [1]; input ligand: none): 0.0565 µM
5 | AAAGACAUGGUGCAGGAUAUAUUAAUAGUCACAUGAGGAUCACCCAUGUUCAGAUAUCUGAACGAGUAGAAGGGCGAUGAAAAAA [SameState2 Malc#5] (Eterna round: R96, puzzle: Same State 2) | 0.0287 | – | – | – | – | – | apparent KD of MS2 coat protein (MS2 coat protein [1]; input ligand: FMN 200 uM): 0.53 µM; apparent KD of MS2 coat protein (MS2 coat protein [1]; input ligand: none): 0.204 µM
6 | AAAGUGGGCUUAUUUGGAUUCUCGUCUGGACAUGAGGAUCACCCAUGUAGGCGCUUGGUCUGAGACUAAGCAGCCGA [Didiinso] (Eterna round: R96, puzzle: Sensor for hsa-mir-208a) | 0.0285 | – | – | – | – | – | apparent KD of MS2 coat protein (MS2 coat protein [1]; input ligand: FMN 200 uM): 0.113 µM; apparent KD of MS2 coat protein (MS2 coat protein [1]; input ligand: none): 0.0753 µM
7 | AAAUAAAACACAGGAUAUGCAGCCAAUACGGCGGCAGAAGGGUGAGACAUGAGGAUCACCCAUGUACACGUCCCACAGACGUGC [Mabege] (Eterna round: R96, puzzle: Same State NG 1) | 0.0899 | – | – | – | – | – | apparent KD of MS2 coat protein (MS2 coat protein [1]; input ligand: FMN 200 uM): 0.426 µM; apparent KD of MS2 coat protein (MS2 coat protein [1]; input ligand: none): 0.119 µM
8 | AACAAACAUGAGGAUCACCCAUGUACAGACCUGGACAUUGUCGAGGAUAUCAGCAAGAAAACAGCUGAGAAGGUGACGCCAGAG [Eternabot solution 6] (Eterna round: R96, puzzle: Same State NG 3) | 0.0522 | – | – | – | – | – | apparent KD of MS2 coat protein (MS2 coat protein [1]; input ligand: FMN 200 uM): 0.0308 µM; apparent KD of MS2 coat protein (MS2 coat protein [1]; input ligand: none): 0.0703 µM
9 | AACAAUCUAUCUGAGGAUAUCAUGAGAAUAACAUGAGGAUCACCCAUGUGCAGGAAAACUGCAUAUGAGAAGGCAGAUAGAUUGG [Mat - Same State 2 - Mod - D21] (puzzle: Same State 2) | – | – | – | – | – | – | apparent KD of MS2 coat protein (MS2 coat protein [1]; [4]): 0.0786 µM; apparent KD of MS2 coat protein (MS2 coat protein [1]; [5]): 0.546 µM; apparent KD of MS2 coat protein (MS2 coat protein [1]; [6]): 2.73 µM
10 | AACAAUCUAUCUGAGGAUAUCAUGUCAAAGACAUGAGGAUCACCCAUGUACCAGGAAACUGGAUAUGAGAAGGCAGAUAGAUUGA [SS2: 1119] (Eterna round: R96, puzzle: Same State 2) | 0.08 | – | – | – | – | – | apparent KD of MS2 coat protein (MS2 coat protein [1]; input ligand: FMN 200 uM): 0.0166 µM; apparent KD of MS2 coat protein (MS2 coat protein [1]; input ligand: none): 0.162 µM
11 | AACAAUCUAUCUGAGGAUAUCUUGAAAUAAACAUGAGGAUCACCCAUGUGCAGGAAAACUGCAUAUGAGAAGGCAGAUAGAUUGA [salish99_ss2_r3_028] (puzzle: Same State 2) | – | – | – | – | – | – | apparent KD of MS2 coat protein (MS2 coat protein [1]; [4]): 0.0145 µM; apparent KD of MS2 coat protein (MS2 coat protein [1]; [5]): 0.124 µM; apparent KD of MS2 coat protein (MS2 coat protein [1]; [6]): 0.148 µM
12 | AACCUAGGCAGAGGAUAUCUGGACGCGCGCACCAGAGAAGGCUGCGAGCCCUGAAUAUACAUGAGGAUCACCCAUGUCCCGCAC [Eternabot solution 15] (Eterna round: R96, puzzle: Same State NG 1) | 0.0278 | – | – | – | – | – | apparent KD of MS2 coat protein (MS2 coat protein [1]; input ligand: FMN 200 uM): 0.0312 µM; apparent KD of MS2 coat protein (MS2 coat protein [1]; input ligand: none): 0.0265 µM
13 | AACUAUCUAUCUCAGGAUAUCAUGUCAAAGACAUGAGGAUCACCCAUGUACCAGGAAACUGGUUAUGAGAAGGGAGAUAGAUAGU [Mat - Same State 2 - Mod - D41] (puzzle: Same State 2) | – | – | – | – | – | – | apparent KD of MS2 coat protein (MS2 coat protein [1]; [4]): 0.127 µM; apparent KD of MS2 coat protein (MS2 coat protein [1]; [5]): 0.263 µM; apparent KD of MS2 coat protein (MS2 coat protein [1]; [6]): 0.602 µM
14 | UUAGAUAUGACAGAUACCAGCGUGUUGUAGAACAUGAGGAUCACCCAUGUAGUGAUCGAGCGCCCUUGGCAGCUGGUGUGUUUGG [7.S] | – | 0.163 | 0.303 | 0.319 | – | – | –
15 | UUAUAUAUGCGAAGGAGCGGGAAAUAUAUAUAUAUAAUCCUAACAUGAGGAUCACCCAUGUCCCAGGUAGGUCGCGCAUAUAUAG [12.C] | – | 0.038 | 0.117 | 0.0534 | 0.079 | 0.0766 | –
16 | UUAUAUAUGCGAAGGAGCGGGAAAUAUAUAUAUAUAAUCCUAACAUGAGGAUCACCCAUGUCCCAGGUAGGUCGCGCAUAUAUGG [12.E] | – | 0.0742 | 0.0768 | 0.0757 | 0.0844 | 0.0951 | –

Row | Sequence | apparent KD of MS2 coat protein (MS2 coat protein [1]; [3]) [µM] | apparent KD of MS2 coat protein (MS2 coat protein [2]; input ligand: arginine 13.2 mM) [µM] | apparent KD of MS2 coat protein (MS2 coat protein [2]; [7]) [µM] | apparent KD of MS2 coat protein (MS2 coat protein [2]; [8]) [µM] | apparent KD of MS2 coat protein (MS2 coat protein [2]; input ligand: none) [µM] | apparent KD of MS2 coat protein (MS2 coat protein [2]; [9]) [µM] | other results
17 | UUAUGCAGGUCGGCCGCCACUACACACAUGAGGAUCACCCAUGUAGUUACUGGGUGAAGUGGCAGUAGGACCGGGACCCGCACAC [Brourdmod22] | – | 0.226 | 0.561 | 0.258 | 0.485 | 0.715 | –
18 | UUAUUUAACGGAAGGAGCGCGGAAAUAAAAGUGGGUAAACAUGAGGAUCACCCAUGUAAACCGCAGGUAGGUCGCCGAUAUUUAU [AstrosEXyARgB#2] | – | 0.037 | 0.0939 | 0.0594 | 0.0769 | 0.0954 | –
19 | UUAUUUAUAUUAGAUACCAGUUUAAUGGCCGCAAAUCCUGACAUGAGGAUCACCCAUGUAAGCCCUUGGCAGCUGGUAUGGGUUU [XTheo B #26] | – | 0.0252 | 0.0252 | 0.0205 | – | – | –
20 | UUCAGCUAGUCGGCCGCCACUACCUGAGGAUCACCCUGGUAAUCCUAACACUGCUUCGGCAGUGGUAGGACCGGGACUAGCUGAG | – | 0.0277 | 0.0397 | 0.225 | 0.0282 | 0.0326 | –
21 | UUCAGCUAGUCGGCCGCCACUAUCUGAGGAUCACCCAGGUAAUCCUAACACUGCUUCGGCAGUGGUAGGACCGGGACUAGCUGAG | – | 0.00818 | 0.0263 | 0.0106 | 0.0145 | 0.02 | –
22 | UUCGUUGGCGAUCUGGGUUUACCAGAUCGGCGAGGACCGGUACGGCCGCCACUCGUGUUUUCUUUACAUGAGGAUCACCCAUGUU [SSTA #3] | – | 0.0169 | 0.0253 | – | – | 0.0255 | –
23 | UUGGGUUUGCGAAGGAGCGGGAAAUAUAUAUAUAUAAUCCUAACAUGAGGAUCACCCAUGUCCCAGGUAGGUCGCGCAGGUUUGG [12.L] | – | 0.0581 | 0.0818 | 0.0587 | 0.0542 | 0.0732 | –
24 | UUGUUGUUUGGAAGGAGCGUGGAUGAGUGAGAACAUGAGGAUCACCCAUGUUGUAUGAUACCGCAGGUAGGUCGCCGGGUGGUGG [11.aB] | – | 0.0169 | 0.0396 | 0.0175 | 0.0181 | 0.0215 | –
25 | UUGUUGUUUGGAAGGAGCGUGUAAGAUUAAGAACAUGAGGAUCACCCAUGUUUUAAGGGAACACAGGUAGGUCGCCGGGUGGUGG [11.R] | – | 0.0155 | 0.019 | 0.0156 | 0.0139 | 0.0148 | –
26 | UUUAAAAUCAGAAGGAGCGUGAUAAACAUGAGGAUCACCCAUGUCGAAAAUUUAAUAUAAUCACAGGUAGGUCGCUGUAAUAUUU [Same State - Ariginine B] | – | 0.0142 | 0.0186 | 0.0142 | 0.014 | 0.0165 | –
27 | UUUGAUAGGACAGAUACCAGCGUGUUAUAGAACAUGAGGAUCACCCAUGUAGUGAUCAAGCGCCCUUGGCAGCUGGUUUGUUAGG [7.K] | – | 0.119 | 0.35 | 0.196 | – | – | –
28 | UUUGCACAUGAGGAUCACCCAUGUACAGAUACCAGCCUCAUCUACGGCCCUUGGCAGCUGAGACAAUGGUGACAUGAUGGGCUUU [Istein] | – | 0.016 | 0.0204 | 0.0123 | – | – | –
29 | UUUUACAUGAGGAUCACCCAUGUGCGGCGCCGAGGACCGGUACGGCCGCCACUCGCAUGGGCAUGCCGCGAUAUCAUUCCUGAAC [theeternabot_sameState_MS2_Trp_A_43] | – | 0.0536 | 0.249 | – | – | 0.306 | –
30 | UUUUUCAUAGGUUAUAGUUUAGAAACUGAAGGAGCGUGGUAAUACACAGGUAGGUCGCAGAUUUUACAUGAGGAUCACCCAUGUU [JR_ExcArginiA_Sub014] | – | 0.0221 | 0.0273 | 0.0256 | 0.0232 | 0.027 | –
31 | UUUUUUAACUGAAGGAGCGUCACAUGAGGAUCACCCAUGUAUUAGAUGAGAAUGAUCUUGUGGCAGGUAGGUCGCAGAGGAAGGG [#30 Exclusion - Arginine B] | – | 0.521 | 0.167 | 0.37 | 0.327 | 0.271 | –
